This note sets out measurements from article PMC11151058, “The Transpeptidase Sortase A Binds Nucleic Acids and Mediates Mammalian Cell Labeling”.

The target in series [1] is T1, mgSrtA (Staphylococcus aureus, UniProt Q2FV99 60-206, P94R;D124G;D160N;D165A;Y187L;E189R;K190E;K196T;F200L). The series can be described thus: band shift, SDS western blot; Western-blot shift: 10 uM protein, 20 uM oligo, HBSS, 37 C, 30 min (Fig 3D 10 min); EMSA: HBSS, 37 C, 30 min, 6% PAGE; MST: 20 mM HEPES, 300 mM NaCl, pH 6.8, 0.1% Tween 20, 25 C. Conditions: protein: recombinant, tags: N-terminal 6xHis (pET-28a), label: 5'Biotin. For orientation: A gel shift assay detects complexes by their altered migration in electrophoresis.

In series [2] the target is T1, mgSrtA. The experiment in a line: band shift, SDS western blot; 1 uM oligo; Western-blot shift: 10 uM protein, 20 uM oligo, HBSS, 37 C, 30 min (Fig 3D 10 min); EMSA: HBSS, 37 C, 30 min, 6% PAGE; MST: 20 mM HEPES, 300 mM NaCl, pH 6.8, 0.1% Tween 20, 25 C. To be noted: protein: recombinant; tags: N-terminal 6xHis (pET-28a); label: 5'Biotin.
Series [3] has as its target T1, mgSrtA. The experiment in a line: band shift, SDS western blot; 20 uM oligo; Western-blot shift: 10 uM protein, 20 uM oligo, HBSS, 37 C, 30 min (Fig 3D 10 min); EMSA: HBSS, 37 C, 30 min, 6% PAGE; MST: 20 mM HEPES, 300 mM NaCl, pH 6.8, 0.1% Tween 20, 25 C. Conditions: protein: recombinant; tags: N-terminal 6xHis (pET-28a); label: 5'Biotin.
Series [4] has as its target T1, mgSrtA. The experiment in a line: band shift, SDS western blot; 50 uM oligo; Western-blot shift: 10 uM protein, 20 uM oligo, HBSS, 37 C, 30 min (Fig 3D 10 min); EMSA: HBSS, 37 C, 30 min, 6% PAGE; MST: 20 mM HEPES, 300 mM NaCl, pH 6.8, 0.1% Tween 20, 25 C. To be noted: protein: recombinant; tags: N-terminal 6xHis (pET-28a); label: 5'Biotin.
Another series concerns the target mgSrtA-L200F (Staphylococcus aureus, UniProt Q2FV99 60-206, P94R;D124G;D160N;D165A;Y187L;E189R;K190E;K196T). The series can be described thus: band shift, SDS western blot; Western-blot shift: 10 uM protein, 20 uM oligo, HBSS, 37 C, 30 min (Fig 3D 10 min); EMSA: HBSS, 37 C, 30 min, 6% PAGE; MST: 20 mM HEPES, 300 mM NaCl, pH 6.8, 0.1% Tween 20, 25 C. To be noted: protein: recombinant; tags: N-terminal 6xHis (pET-28a); label: 5'Biotin, 3'FITC.

The next series addresses mgSrtA-R197A (Staphylococcus aureus, UniProt Q2FV99 60-206, P94R;D124G;D160N;D165A;Y187L;E189R;K190E;K196T;R197A;F200L). Described as above. Conditions: protein: recombinant; tags: N-terminal 6xHis (pET-28a); label: 5'Biotin, 3'FITC.
The target in a further series is WTSrtA (Staphylococcus aureus, UniProt Q2FV99 60-206). The description is as above. To be noted: protein: recombinant; tags: N-terminal 6xHis (pET-28a); label: 5'Biotin, 3'FITC.
Another series deals with 5M SrtA (Staphylococcus aureus, UniProt Q2FV99 60-206, P94R;D160N;D165A;K190E;K196T). The series is described as above. To be noted: protein: recombinant; tags: N-terminal 6xHis (pET-28a); label: 5'Biotin, 3'FITC.
Another series deals with mgSrtA-triple (Staphylococcus aureus, UniProt Q2FV99 60-206, P94R;H120A;D124G;D160N;D165A;C184A;Y187L;E189R;K190E;K196T;R197A;F200L). Described as above. Conditions: protein: recombinant; tags: N-terminal 6xHis (pET-28a); label: 5'Biotin, 3'FITC.
Another series addresses mgSrtA-mono (Staphylococcus aureus, UniProt Q2FV99 60-206, P94R;D124G;N132A;K137A;Y143A;D160N;D165A;Y187L;E189R;K190E;K196T;F200L). The series is described as above. To be noted: protein: recombinant; tags: N-terminal 6xHis (pET-28a); label: 5'Biotin, 3'FITC.
The target of another series is mgSrtA-C184A (Staphylococcus aureus, UniProt Q2FV99 60-206, P94R;D124G;D160N;D165A;C184A;Y187L;E189R;K190E;K196T;F200L). Described as above. To be noted: protein: recombinant; tags: N-terminal 6xHis (pET-28a); label: 5'Biotin, 3'FITC.
A further series deals with mgSrtA-H120A (Staphylococcus aureus, UniProt Q2FV99 60-206, P94R;H120A;D124G;D160N;D165A;Y187L;E189R;K190E;K196T;F200L). The description is as above. To be noted: protein: recombinant; tags: N-terminal 6xHis (pET-28a); label: 5'Biotin, 3'FITC.

As to GGGG (ssDNA) [4G (Fig S17)], in the series with mgSrtA [1], the binding result is “binds”.
On to GGGGCGGGGTGGGGCGGGGT (ssDNA) [20G], for which, in the series with mgSrtA [2], the binding result is recorded as “binds”.
GGGGGGGG (ssDNA) [8G]: the binding result with mgSrtA [3] is reported as “binds”.
With GGGGCGGGGTGGGGC (ssDNA) [15G], in the series with mgSrtA [2], the binding result is on record as “binds”.
GGGGGG (ssDNA) [6G]: in the series with mgSrtA [4], the binding result is “binds”.
Turning to GGGG (ssDNA) [BF 4G], the binding result with mgSrtA-L200F, with mgSrtA-R197A, with WTSrtA, with 5M SrtA, in the series with mgSrtA [1] (3'FITC) and with mgSrtA-triple was “binds” throughout. The binding result with mgSrtA-mono, with mgSrtA-C184A and with mgSrtA-H120A was “binds” throughout.
